Test system: Escherichia coli TOP10
Experiment: shrunken log2 fold change of peptide-encoding DNA abundance (4.5 h post-induction vs induction); higher = less antimicrobial activity (less host growth inhibition)
Conditions: time post-induction: 4.5 h; library: site-saturation at positions 5, 18, 19, 20
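Also: peptides expressed intracellularly from a pBAD plasmid library in pooled LB shake-flask culture, induced with 0.3% L-arabinose, DNA abundance read by NGS, three biological replicates, DESeq2 with apeglm shrinkage.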

| Sequence | shrunken log2 fold change |
| --- | --- |
| RRIRYRPPRLPRPRPRPHVHPRP | -0.00398 |
| RRIRYRPPRLPRPRPRPHVVPRP | -0.261 |
| RRIRYRPPRLPRPRPRPHVYPRP | -0.748 |
| RRIRYRPPRLPRPRPRPHWSPRP | -0.318 |
| RRIRYRPPRLPRPRPRPIAHPRP | -0.901 |
| RRIRYRPPRLPRPRPRPIAPPRP | -0.0464 |
| RRIRYRPPRLPRPRPRPIEPPRP | -0.111 |
| RRIRYRPPRLPRPRPRPIGVPRP | -0.0936 |
| RRIRYRPPRLPRPRPRPIHDPRP | -1.22 |
| RRIRYRPPRLPRPRPRPIINPRP | -0.099 |
| RRIRYRPPRLPRPRPRPIIWPRP | -0.152 |
| RRIRYRPPRLPRPRPRPINNPRP | -0.892 |
| RRIRYRPPRLPRPRPRPIPMPRP | -0.807 |
| RRIRYRPPRLPRPRPRPIQCPRP | -0.0422 |
| RRIRYRPPRLPRPRPRPIRTPRP | -0.258 |
| RRIRYRPPRLPRPRPRPIWWPRP | 0.136 |
| RRIRYRPPRLPRPRPRPIYWPRP | -0.204 |
| RRIRYRPPRLPRPRPRPKCHPRP | -0.139 |
| RRIRYRPPRLPRPRPRPKFHPRP | -1.15 |
| RRIRYRPPRLPRPRPRPKFRPRP | -0.102 |
| RRIRYRPPRLPRPRPRPKGLPRP | -0.0102 |
| RRIRYRPPRLPRPRPRPKGWPRP | 0.465 |
| RRIRYRPPRLPRPRPRPKHDPRP | -0.648 |
| RRIRYRPPRLPRPRPRPKHGPRP | -0.413 |
| RRIRYRPPRLPRPRPRPKHPPRP | -0.155 |

| Sequence | shrunken log2 fold change |
| --- | --- |
| RRIRYRPPRLPRPRPRPKHQPRP | -0.441 |
| RRIRYRPPRLPRPRPRPKIAPRP | -0.404 |
| RRIRYRPPRLPRPRPRPKINPRP | -0.902 |
| RRIRYRPPRLPRPRPRPKKDPRP | -0.719 |
| RRIRYRPPRLPRPRPRPKKRPRP | -0.11 |
| RRIRYRPPRLPRPRPRPKKSPRP | -0.298 |
| RRIRYRPPRLPRPRPRPKKWPRP | -0.113 |
| RRIRYRPPRLPRPRPRPKLEPRP | 0.00557 |
| RRIRYRPPRLPRPRPRPKLIPRP | -0.775 |
| RRIRYRPPRLPRPRPRPKLSPRP | -0.204 |
| RRIRYRPPRLPRPRPRPKMLPRP | 0.0981 |
| RRIRYRPPRLPRPRPRPKMQPRP | -0.344 |
| RRIRYRPPRLPRPRPRPKNCPRP | -0.0167 |
| RRIRYRPPRLPRPRPRPKNRPRP | -0.0456 |
| RRIRYRPPRLPRPRPRPKNVPRP | 0.0242 |
| RRIRYRPPRLPRPRPRPKQQPRP | -0.0891 |
| RRIRYRPPRLPRPRPRPKQYPRP | -0.409 |
| RRIRYRPPRLPRPRPRPKSPPRP | 0.0245 |
| RRIRYRPPRLPRPRPRPKSSPRP | -0.147 |
| RRIRYRPPRLPRPRPRPKTCPRP | -0.0102 |
| RRIRYRPPRLPRPRPRPKVEPRP | -0.157 |
| RRIRYRPPRLPRPRPRPKVLPRP | -0.04 |
| RRIRYRPPRLPRPRPRPKWEPRP | -0.263 |
| RRIRYRPPRLPRPRPRPKWPPRP | -0.0557 |
| RRIRYRPPRLPRPRPRPKYIPRP | -0.665 |

| Sequence | shrunken log2 fold change |
| --- | --- |
| RRIRYRPPRLPRPRPRPKYSPRP | -0.274 |
| RRIRYRPPRLPRPRPRPLANPRP | -0.371 |
| RRIRYRPPRLPRPRPRPLAVPRP | -0.0867 |
| RRIRYRPPRLPRPRPRPLCDPRP | -0.12 |
| RRIRYRPPRLPRPRPRPLCGPRP | -0.557 |
| RRIRYRPPRLPRPRPRPLDGPRP | -0.467 |
| RRIRYRPPRLPRPRPRPLEMPRP | -0.0768 |
| RRIRYRPPRLPRPRPRPLESPRP | -0.0422 |
| RRIRYRPPRLPRPRPRPLFMPRP | -1.24 |
| RRIRYRPPRLPRPRPRPLFSPRP | -0.673 |
| RRIRYRPPRLPRPRPRPLFTPRP | -0.962 |
| RRIRYRPPRLPRPRPRPLFYPRP | -0.335 |
| RRIRYRPPRLPRPRPRPLGHPRP | 0.0209 |
| RRIRYRPPRLPRPRPRPLHLPRP | -0.516 |
| RRIRYRPPRLPRPRPRPLIKPRP | -0.386 |
| RRIRYRPPRLPRPRPRPLIQPRP | -0.559 |
| RRIRYRPPRLPRPRPRPLLFPRP | -0.614 |
| RRIRYRPPRLPRPRPRPLLIPRP | -0.798 |
| RRIRYRPPRLPRPRPRPLNRPRP | -1.92 |
| RRIRYRPPRLPRPRPRPLPIPRP | -0.722 |
| RRIRYRPPRLPRPRPRPLPRPRP | 0.00472 |
| RRIRYRPPRLPRPRPRPLQQPRP | -0.25 |
| RRIRYRPPRLPRPRPRPLSLPRP | -1.1 |
| RRIRYRPPRLPRPRPRPLTDPRP | -0.134 |
| RRIRYRPPRLPRPRPRPLTWPRP | -0.333 |

| Sequence | shrunken log2 fold change |
| --- | --- |
| RRIRYRPPRLPRPRPRPLVHPRP | 0.0162 |
| RRIRYRPPRLPRPRPRPLVRPRP | -0.0244 |
| RRIRYRPPRLPRPRPRPLWPPRP | -0.135 |
| RRIRYRPPRLPRPRPRPLWQPRP | -0.499 |
| RRIRYRPPRLPRPRPRPLWSPRP | 0.0381 |
| RRIRYRPPRLPRPRPRPMAKPRP | -0.0343 |
| RRIRYRPPRLPRPRPRPMCRPRP | -0.181 |
| RRIRYRPPRLPRPRPRPMCWPRP | -0.213 |
| RRIRYRPPRLPRPRPRPMDDPRP | -0.0837 |
| RRIRYRPPRLPRPRPRPMDRPRP | -0.0498 |
| RRIRYRPPRLPRPRPRPMDTPRP | -0.216 |
| RRIRYRPPRLPRPRPRPMEAPRP | -0.163 |
| RRIRYRPPRLPRPRPRPMFHPRP | -1.24 |
| RRIRYRPPRLPRPRPRPMFPPRP | -0.463 |
| RRIRYRPPRLPRPRPRPMGTPRP | -0.304 |
| RRIRYRPPRLPRPRPRPMHNPRP | 0.162 |
| RRIRYRPPRLPRPRPRPMINPRP | -1.18 |
| RRIRYRPPRLPRPRPRPMKLPRP | -0.58 |
| RRIRYRPPRLPRPRPRPMLPPRP | -0.0473 |
| RRIRYRPPRLPRPRPRPMLSPRP | 0.0215 |
| RRIRYRPPRLPRPRPRPMMCPRP | 0.168 |
| RRIRYRPPRLPRPRPRPMMEPRP | -0.141 |
| RRIRYRPPRLPRPRPRPMMNPRP | -0.367 |
| RRIRYRPPRLPRPRPRPMNYPRP | -0.49 |
| RRIRYRPPRLPRPRPRPMPFPRP | 0.00489 |

| Sequence | shrunken log2 fold change |
| --- | --- |
| RRIRYRPPRLPRPRPRPMQDPRP | -0.28 |
| RRIRYRPPRLPRPRPRPMRDPRP | -0.151 |
| RRIRYRPPRLPRPRPRPMRKPRP | -0.00197 |
| RRIRYRPPRLPRPRPRPMSDPRP | 0.0277 |
| RRIRYRPPRLPRPRPRPMSFPRP | -0.00962 |
| RRIRYRPPRLPRPRPRPMSGPRP | -0.748 |
| RRIRYRPPRLPRPRPRPMSKPRP | 3.29 |
| RRIRYRPPRLPRPRPRPMTEPRP | -0.0202 |
| RRIRYRPPRLPRPRPRPMTIPRP | -0.936 |
| RRIRYRPPRLPRPRPRPMTKPRP | 0.0153 |
| RRIRYRPPRLPRPRPRPMTTPRP | -0.2 |
| RRIRYRPPRLPRPRPRPMTWPRP | -0.31 |
| RRIRYRPPRLPRPRPRPMWGPRP | 0.171 |
| RRIRYRPPRLPRPRPRPMWPPRP | 0.158 |
| RRIRYRPPRLPRPRPRPMYGPRP | -0.00999 |
| RRIRYRPPRLPRPRPRPNCFPRP | -0.43 |
| RRIRYRPPRLPRPRPRPNDAPRP | 0.011 |
| RRIRYRPPRLPRPRPRPNDKPRP | -0.892 |
| RRIRYRPPRLPRPRPRPNGSPRP | -0.289 |
| RRIRYRPPRLPRPRPRPNHAPRP | -0.142 |
| RRIRYRPPRLPRPRPRPNHMPRP | -0.611 |
| RRIRYRPPRLPRPRPRPNIQPRP | -1.58 |
| RRIRYRPPRLPRPRPRPNITPRP | -1.03 |
| RRIRYRPPRLPRPRPRPNKHPRP | -0.916 |
| RRIRYRPPRLPRPRPRPNKSPRP | -0.941 |

| Sequence | shrunken log2 fold change |
| --- | --- |
| RRIRYRPPRLPRPRPRPNLIPRP | -0.438 |
| RRIRYRPPRLPRPRPRPNLPPRP | -0.479 |
| RRIRYRPPRLPRPRPRPNNNPRP | -0.989 |
| RRIRYRPPRLPRPRPRPNQMPRP | -0.194 |
| RRIRYRPPRLPRPRPRPNQTPRP | -0.0672 |
| RRIRYRPPRLPRPRPRPNRAPRP | -0.0548 |
| RRIRYRPPRLPRPRPRPNRCPRP | 0.00786 |
| RRIRYRPPRLPRPRPRPNTEPRP | -0.0461 |
| RRIRYRPPRLPRPRPRPNVEPRP | -0.155 |
| RRIRYRPPRLPRPRPRPNWKPRP | 0.138 |
| RRIRYRPPRLPRPRPRPNYNPRP | -1.43 |
| RRIRYRPPRLPRPRPRPNYVPRP | -0.466 |
| RRIRYRPPRLPRPRPRPPASPRP | 0.249 |
| RRIRYRPPRLPRPRPRPPCCPRP | -0.149 |
| RRIRYRPPRLPRPRPRPPDAPRP | 0.0465 |
| RRIRYRPPRLPRPRPRPPDHPRP | 0.0391 |
| RRIRYRPPRLPRPRPRPPDQPRP | -0.145 |
| RRIRYRPPRLPRPRPRPPDTPRP | -0.425 |
| RRIRYRPPRLPRPRPRPPFNPRP | -0.309 |
| RRIRYRPPRLPRPRPRPPFWPRP | 0.395 |
| RRIRYRPPRLPRPRPRPPGLPRP | 0.148 |
| RRIRYRPPRLPRPRPRPPIGPRP | -0.0423 |
| RRIRYRPPRLPRPRPRPPKEPRP | -0.00185 |
| RRIRYRPPRLPRPRPRPPLRPRP | -0.151 |
| RRIRYRPPRLPRPRPRPPMIPRP | -1.39 |

From the supplement of paper PMC9112550, “Optimization of the antimicrobial peptide Bac7 by deep mutational scanning” (BMC Biology, 2022)
